{"source": "patent US20240228596A1", "data": [{"target": "SARS-COV-2 Wuhan WT Spike_del18 on VSV-delG pseudotyped particles (SARS-COV-2) (UniProt P0DTC2)", "assay": "cell-based or functional assay", "units": {"IC50 ug/ml, pseudoneutralization assay": "µg/mL"}, "values": [{"substance": "pX-B001_GS-VHH72-h1-E1D-S56A_(G4S)6_VHH72-h1-E1D-S56A_His8", "IC50 ug/ml, pseudoneutralization assay": 0.169}, {"substance": "pX-B003_GS-VHH72-h1-E1D-S56A_(G4S)4_VHH72-h1-E1D-S56A_His8", "IC50 ug/ml, pseudoneutralization assay": 0.361}, {"substance": "pX-B002_GS-VHH72-h1-E1D-S56A_(G4S)_VHH72-h1-E1D-S56A_His8", "IC50 ug/ml, pseudoneutralization assay": 0.108}]}]}
